Measured values from patent US20210155689A1 (SHANGHAI PHARMAEXPLORER, published 2021).
Residue numbers refer to the chain shown, from its start.

T1: hFc tagged monkey LAG-3 protein (cLAG-3-hFc protein) (monkey; human)
T1 construct: Made in HEK293 cells; also called monkey LAG-3 extracellular domain protein; not shown: human IgG Fc fragment (hFc) of the pCpC vector
T1 chain: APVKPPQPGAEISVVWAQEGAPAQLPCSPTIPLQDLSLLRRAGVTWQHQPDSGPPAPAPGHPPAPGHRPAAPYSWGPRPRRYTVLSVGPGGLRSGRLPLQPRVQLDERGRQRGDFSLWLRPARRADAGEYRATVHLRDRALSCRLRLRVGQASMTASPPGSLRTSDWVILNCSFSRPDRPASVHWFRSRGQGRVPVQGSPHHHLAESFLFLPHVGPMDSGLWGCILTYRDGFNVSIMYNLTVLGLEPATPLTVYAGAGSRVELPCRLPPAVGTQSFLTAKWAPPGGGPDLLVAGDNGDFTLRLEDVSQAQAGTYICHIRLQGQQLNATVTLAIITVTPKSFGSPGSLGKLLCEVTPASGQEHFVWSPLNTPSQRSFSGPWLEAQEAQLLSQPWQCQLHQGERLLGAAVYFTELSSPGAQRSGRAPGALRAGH

T2: LAG-3-hFc protein (human LAG-3 extracellular region with hFc tag) (human, UniProt P18627 23-450)
T2 construct: also called hLAG-3-hFc; LAG-3 protein; not shown: human IgG Fc fragment (hFc) of the pCpC vector
T2 sequence: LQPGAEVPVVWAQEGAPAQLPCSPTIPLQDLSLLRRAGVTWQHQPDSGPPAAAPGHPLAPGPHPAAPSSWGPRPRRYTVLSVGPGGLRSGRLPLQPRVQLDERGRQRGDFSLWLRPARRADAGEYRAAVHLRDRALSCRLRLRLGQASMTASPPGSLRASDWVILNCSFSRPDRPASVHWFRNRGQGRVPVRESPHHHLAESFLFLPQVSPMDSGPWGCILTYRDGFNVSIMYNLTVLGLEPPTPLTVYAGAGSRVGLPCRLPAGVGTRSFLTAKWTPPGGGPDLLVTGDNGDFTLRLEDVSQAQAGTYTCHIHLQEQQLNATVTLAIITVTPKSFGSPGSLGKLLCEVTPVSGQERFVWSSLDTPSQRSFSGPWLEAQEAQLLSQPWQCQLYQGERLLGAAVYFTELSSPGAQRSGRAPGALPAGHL

T3: human LAG-3 on cells (HEK293-hLAG-3 stable cell line) (human, UniProt P18627 23-525)
T3 sequence: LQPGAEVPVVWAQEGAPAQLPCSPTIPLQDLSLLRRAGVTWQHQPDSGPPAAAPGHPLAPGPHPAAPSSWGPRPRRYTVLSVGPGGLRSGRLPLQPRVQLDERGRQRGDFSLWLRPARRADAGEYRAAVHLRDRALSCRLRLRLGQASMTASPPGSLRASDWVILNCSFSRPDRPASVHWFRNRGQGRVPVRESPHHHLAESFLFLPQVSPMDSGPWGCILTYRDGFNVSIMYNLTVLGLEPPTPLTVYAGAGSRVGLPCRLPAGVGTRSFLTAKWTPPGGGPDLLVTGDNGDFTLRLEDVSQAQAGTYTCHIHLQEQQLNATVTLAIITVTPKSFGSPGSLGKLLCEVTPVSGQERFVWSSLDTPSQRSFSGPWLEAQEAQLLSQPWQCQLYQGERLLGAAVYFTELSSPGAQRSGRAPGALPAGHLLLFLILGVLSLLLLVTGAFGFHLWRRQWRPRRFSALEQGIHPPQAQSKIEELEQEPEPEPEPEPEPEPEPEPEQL

B1: 105F1E10 (LAG-3 mouse-human chimeric antibody) (antibody, V domains shown)
VH: EVQLQQSGPELVKPGASVKMSCRASGYTFTDFKMHWMKQSHGKSLEWIGYIAPNNGGTAYNQKFRGKATLTVNESSNTAYMELRSLTSEDSAVYYCVDWDDVDYWGQGTTLTVSS
VL: DIKMTQSPSSMYASLGERVTITCKASQDINSYLSWFQQKSGKSPKTLIYRANRLVDGVPSRFSGSGSGQDYSLTISSLEYEDMGIYYCLQYVEFPLTFGAGTKLELK
B2: 405B8H3 (LAG-3 mouse-human chimeric antibody) (antibody, V domains shown)
VH: QVQLQQSGAELVRPGASVTLSCKASGYTFTDYEMHWVKQTPVHGLEWIGATDPETGNSAYNQKFKGKAIMTADKSSSTAYMELRSLTSEDSAVYYCISTGWNDWGQGTSLTVSS
VL: B1 VL with S40P, N52D, V55L, E81G, V92D, L96Y, A100G, L106I
notes: also called mouse-human chimeric antibody 405B8H3
B3: 409B11E12 (LAG-3 mouse-human chimeric antibody) (antibody, V domains shown)
VH: B2 VH with P41T, G56S, N57Y, M70L, S98A
VL: B1 VL with I2L, S40P, V55L, V92D, L96Y, A100G, L106I
B4: 409D4E10 (LAG-3 mouse-human chimeric antibody) (antibody, V domains shown)
VH: B2 VH with Y27N, G56D, S58T, M70L, A72T, S98T, T99S
VL: B1 VL with S40P, V55L, V92N, L96Y, A100G, L106I
B5: 556F6B8 (LAG-3 mouse-human chimeric antibody) (antibody, V domains shown)
VH: RVQLKQSGPGLVQPSQSLSITCTVSGFSLIKYGVHWVRQSPGEGLEWLGVIWRGGITDYNAAFMSRLSITKDNSKSQVFFKMNSLQADDTAIYYCAKWDGPLAMDYWGQGTSVTVSS
VL: DIVMTQSHKFLSTSVGDRVSITCKASQDVGTTVAWYQQKPGQSPKLLIYWASTRHTGVPDRFTGSGSGTDFTLTISNVQSEDLADYFCQQYSSYPYTFGGGTKLEIK
notes: also called 556F8B8
B6: 105F1E10 mouse-human chimeric antibody (antibody, V domains shown)
VH: B1 VH
VL: B1 VL
notes: also called mAb009-105F1E10
B7: 405B8H3 mouse-human chimeric antibody (antibody, V domains shown)
VH: B2 VH
VL: B1 VL with S40P, N52D, V55L, E81G, V92D, L96Y, A100G, L106I
notes: also called mAb103-405B8H3
B8: 409B11E12 mouse-human chimeric antibody (antibody, V domains shown)
VH: B2 VH with P41T, G56S, N57Y, M70L, S98A
VL: B1 VL with I2L, S40P, V55L, V92D, L96Y, A100G, L106I
notes: also called mAb104-409B11E12
B9: 409D4E10 mouse-human chimeric antibody (antibody, V domains shown)
VH: B2 VH with Y27N, G56D, S58T, M70L, A72T, S98T, T99S
VL: B1 VL with S40P, V55L, V92N, L96Y, A100G, L106I
notes: also called mAb112-409D4E10
B10: 556F6B8 mouse-human chimeric antibody (antibody, V domains shown)
VH: B5 VH
VL: B5 VL
notes: also called mAb123-556F6B8; 556F8B8

Biological target: T1, hFc tagged monkey LAG-3 protein …
Test: ELISA, cLAG-3-hFc coated; 0.0000 nM
Description: (§1) The plate was sealed with plastic film and incubated overnight at 4° C. The plate was washed 2 times with the plate washing solution (PBS+0.01% Tween20) on the next day, and added with the blocking solution (PBS+0.01% Tween20+1% BSA) and blocked at room temperature for 1-2 hours. The blocking solution was poured out, and the plate was added with 50-100 μl of the antibody sample to be tested to each well, incubated at 37° C. for 1-2 hours, and washed 2-3 times with a plate washing solution (PBS+0.01% Tween20). HRP (horseradish peroxidase) labeled secondary antibody was added, and the plate was incubated at 37° C. for 1-2 hours, and washed 2-3 times with a plate washing solution (PBS+0.01% Tween20). 100 μl of TMB substrate was added to each well. After incubated at room temperature for 15-30 minutes, the plate was added with 100 μl of stop solution (1.0N HCl) to each well.

Binder | OD450 [OD450]
B1 | 0.15
B2 | 0.15
B3 | 0.14
B4 | 0.18
B5 | 0.19

Biological target: T2, LAG-3-hFc protein (human LAG-3 …)
Test: FACS, inhibition of LAG-3-hFc binding to MHC II on Raji cells, antibody 0.000 nM
Description: The FACS reaction plate incubating the Raji cells was centrifuged to discard the supernatant. The above mixture was added as 100 μl per well to Raji cells and incubated on ice for 1-2 hours. The plate was washed twice with blocking solution (PBS, 2% fetal bovine serum) by centrifugation, added with 100 microliters of fluorescent (Alexa 488)-labeled secondary antibodies per well, and incubated on ice for 1.0 hours. The plate was washed 2-3 times by centrifugation with blocking solution (PBS, 2% fetal bovine serum), added with 100 microliters of PBS per well to suspend cells, and detected using FACS (FACS Calibur, BD) and the results were analyzed. Wherein, the IgG control was murine IgG, and the data in the table is the inhibition rate (%).

Binder | Inhibition rate (%)
B6 | -32.3
B7 | -15.6
B8 | -11.8
B9 | -1.7
B10 | 12.9

Biological target: T3, human LAG-3 on cells (HEK293-hLAG-3 …)
Test: cell-based or functional assay

Binder | IL-2 production, antigen-specific T lymphocyte stimulation test, 0.016 ug/ml, N = 1 [pg/mL] | IL-2 production, antigen-specific T lymphocyte stimulation test, 0.016 ug/ml, N = 2 [pg/mL] | IL-2 production, antigen-specific T lymphocyte stimulation test, 0.08 ug/ml, N = 1 [pg/mL] | IL-2 production, antigen-specific T lymphocyte stimulation test, 0.08 ug/ml, N = 2 [pg/mL] | IL-2 production, antigen-specific T lymphocyte stimulation test, 0.4 ug/ml, N = 1 [pg/mL] | IL-2 production, antigen-specific T lymphocyte stimulation test, 0.4 ug/ml, N = 2 [pg/mL] | IL-2 production, antigen-specific T lymphocyte stimulation test, 2 ug/ml, N = 1 [pg/mL] | IL-2 production, antigen-specific T lymphocyte stimulation test, 2 ug/ml, N = 2 [pg/mL] | IL-2 production, antigen-specific T lymphocyte stimulation test, 10 ug/ml, N = 1 [pg/mL] | IL-2 production, antigen-specific T lymphocyte stimulation test, 10 ug/ml, N = 2 [pg/mL]
B6 | 452 | 420 | 437 | 467 | 779 | 757 | 853 | 792 | 850 | 627
B7 | 366 | 420 | 666 | 559 | 883 | 986 | 876 | 825 | 770 | 789
B8 | 402 | 433 | 525 | 555 | 835 | 954 | 914 | 915 | 671 | 795
B9 | 384 | 334 | 498 | 534 | 804 | 678 | 825 | 673 | 890 | 801
B10 | 348 | 353 | 499 | 491 | 794 | 599 | 818 | 866 | 584 | 722

Biological target: T1, hFc tagged monkey LAG-3 protein …
Test: ELISA, cLAG-3-hFc coated; 0.0067 nM
Description: as §1

Binder | OD450 [OD450]
B1 | 0.26
B2 | 0.46
B3 | 0.39
B4 | 0.64
B5 | 0.46
